“And” between values parts separate entries of the source, which are not always exact repeats. Equal entries are not always repeated. Where two headings read alike, the source gives them in different places.
What was measured:
Assay in all cases: SPR
[1] = target: Human angiostatin kringles 1–5 (K1–5) (human)
[2] = target: Human angiostatin kringles 1–5 (K1–5) (human); remark: listed apart in the source
[3] = target: Recombinant yeast F1-ATPase (F1-ATP synthase protein complex) (yeast) (UniProt P07251)
[4] = target: Recombinant yeast F1-ATPase (F1-ATP synthase protein complex) (yeast) (UniProt P07251); remark: listed apart in the source

Molecule	Ka [1]	Kd [1]	koff [1]	kon [1]	Kd [2]	IC50 [3]	IC50 [4]
Recombinant yeast F1-ATPase (F1-ATP synthase protein complex) (from UniProt P07251 36-545; P00830 34-511; P38077 34-311)	6.5e+06 M⁻¹ and 5.1e+06 M⁻¹	154 nM and 137 nM and 195 nM	0.0002 s⁻¹ and 0.00019 s⁻¹	1300 M⁻¹ s⁻¹ and 960 M⁻¹ s⁻¹	130 to 237 nM		
Pigment epithelium-derived factor (PEDF), human recombinant (ligand) QNPASPPEEGSPDPDSTGALVEEEDPFFKVPVNKLAAAVSNFGYDLYRVRSSTSPTTNVLLSPLSVATALSALSLGAEQRTESIIHRALYYDLISSPDIHGTYKELLDTVTAPQKNLKSASRIVFEKKLRIKSSFVAPLEKSYGTRPRVLTGNPRLDLQEINNWVQAQMKGKLARSTKEIPDEISILLLGVAHFKGQWVTKFDSRKTSLEDFYLDEERTVRVPMMSDPKAVLRYGLDSDLSCKIAQLPLTGSMSIIFFLPLKVTQNLTLIEESLTSEFIHDIDRELKTVQAVLTVPKLKLSYEGEVTKSLQEMKLQSLFDSPDFSKITGKPIKLTQVEHRAGFEWNEDGAGTTPSPGLQPAHLTFPLDYHLNQPFIFVLRDTDTGALLFIGKILDPRGP						17.3 nM	11.8 nM
